Broadly, the Km is the substrate concentration at which the rate is half of its maximum.

This is an account of results in patent EP0651055A2 (priority 1993, dated 1995).

The subject of one data set is CC(=O)SCCC(C)(C)C. The data set is described as follows: purified protein, by the assay type. The following applies: sodium-phosphate buffer pH 8, 27°C.
For the next data set, the system named is CC(=O)SCC[N+](C)(C)C. The data set is described as follows: purified protein, by the assay type. The note with it: sodium-phosphate buffer pH 8, 27°C.

As for “recombinant HuAChE mutant Phe338Ala (Homo sapiens; F369A)”, the Km with CC(=O)SCCC(C)(C)C (other: Phe338Ala) is 300 ± 70 µM; in the data set with CC(=O)SCC[N+](C)(C)C (other: Phe338Ala), 240 ± 20 µM.

As to “recombinant HuAChE mutant Glu450Ala (Homo sapiens; E481A)”, the Km in the data set with CC(=O)SCCC(C)(C)C (other: Glu450Ala) came out at 200 ± 40 µM; with CC(=O)SCC[N+](C)(C)C (other: Glu450Ala), 350 ± 40 µM.

As for “recombinant HuAChE mutant Tyr337Ala (Homo sapiens; Y368A)”, the Km amounted to 200 ± 30 µM with CC(=O)SCCC(C)(C)C (other: Tyr337Ala) and 100 ± 10 µM in the data set on CC(=O)SCC[N+](C)(C)C (other: Tyr337Ala).

“recombinant HuAChE mutant Glu202Gln (Homo sapiens; E233Q)”: the Km amounted to 230 ± 30 µM in the data set with CC(=O)SCCC(C)(C)C (other: Glu202Gln) and 350 ± 40 µM with CC(=O)SCC[N+](C)(C)C (other: Glu202Gln).
